Values joined by “and” are separate entries in the source; they are usually repeats but may differ in a detail not shown here. Equal entries are not always repeated. Where two headings read alike, the source gives them in different places.
What was measured:
[1] = reference 24; cited from earlier work
[2] = in vitro and in vivo, reference 23; cited from earlier work
[3] = Estimated human absorbed doses (Olinda/EXM) from PET biodistribution in macaque monkey; type: in vivo
Protocol: (§1) The PET images at 1, 5, 10, 20, 40, 60, 120, and 180 min after injection are disclosed in FIG. 4. […] The bladder content was visualized at 10 min after injection and more and more activity was accumulated in urine bladder content. […] Gallbladder uptake was not observed during the whole scan. […] The urinary bladder had the highest uptake, with 51.37%±8.73% of injected activity at 1 h post injection. The maximum uptake for the liver, and kidneys were 37.40±6.63% ID (9 min) and 26.79±4.35% ID (0.5 min) respectively.
The mean organ doses for the human phantom were calculated with Olinda/EXM using ^64Cu-BaBaSar-RGD2 biodistribution in monkey (Table 2). The kidneys had the highest radiation-absorbed doses (108.43 μGy/MBq), followed by the bladder wall (87.07 μGy/MBq). The mean effective dose of ^64Cu-BaBaSar-RGD2 was 15.30±2.21 μSv/MBq. […] The estimated doses for […] were higher by 18% because body and organ sizes of women are smaller than those men (data not shown).
Integrin αvβ3-targeted radiopharmaceutical ^64Cu-BaBaSar-RGD2 has been successfully synthesized with the one-step kit method. The straightforward method greatly simplifies the production process and benefits the clinical application of ^64Cu-BaBaSar-RGD2. Human radiation dosimetry of ^64Cu-BaBaSar-RGD2 was estimated after intravenous administration in macaque monkey, by PET imaging and OLINDA/EXM calculations. The critical organs were kidneys and urinary bladder wall. The mean effective dose, determined with the male adult model, was […]. […] Therefore, ^64Cu-BaBaSar-RGD2 can safely be used in human scan for further evaluation of its performance as an integrin-targeting probe.

U87MG glioblastoma tumor = conditions: cited from earlier work
[4] = Vital signs after injection in macaque monkey; type: in vivo; conditions: 13.1-19.7 MBq/kg, during and 24-h after PET scan
Protocol: as §1

[5] = PET/CT biodistribution in macaque monkey; type: in vivo; conditions: for tissue uptake dose: monkey, iv, total radioactivity
Protocol: FIG. 4: Decay-corrected anterior maximum-intensity projections of PET/CT at 1, 5, 10, 20, 40, 60, 120, and 180 min after injection of ^64Cu-BaBaSar-RGD2 in macaque monkey.
as §1

[6] = Blood clearance from venous blood samples during PET scan; type: in vivo, monkey
Protocol: Venous blood samples were withdrawn from monkey during the PET scan. […] At 22 h after injection, the activity in the blood decreased to 0.79±0.52% ID. Based on the percentage of injected dose in blood sample, the half life of ^64Cu-BaBaSar-RGD2 in blood pool was calculated as 12.1±4.0 min (n=3).

[7] = human phantom, Olinda/EXM, monkey biodistribution, Mean ± SD
[8] = male human phantom, Olinda/EXM, monkey biodistribution, Mean ± SD

OC[C@H]1OC(O)[C@H]([18F])[C@@H](O)[C@@H]1O (stereo partly drawn) [^18F-FDG, 2-deoxy-2-[^18F]fluoro-D-glucose]
Estimated dose in a whole-body PET scan [1]: 6.23 mSv

N=C(N)NCCC[C@@H]1NC(=O)[C@H](CCCCNC(=O)c2ccc(CNC34CNCCNCC(NCc5ccc(C(=O)NCCCC[C@@H]6NC(=O)[C@@H](Cc7ccc(O)cc7)NC(=O)[C@H](CC(=O)O)NC(=O)CNC(=O)[C@H](CCCNC(=N)N)NC6=O)cc5)(CNCCNC3)CNCCNC4)cc2)NC(=O)[C@@H](Cc2ccc(O)cc2)NC(=O)[C@H](CC(=O)O)NC(=O)CNC1=O [^64Cu-BaBaSar-RGD2, metal not drawn]
Stability [2]: great stability both in vitro and in vivo
Effective dose for the non-voiding model ([3]; 925-MBq administrated into human subject): 14.2 mSv
Mean effective dose, male adult model ([3]; OLINDA/EXM, intravenous administration in macaque monkey): 15.30±2.21 Sv/MBq
Estimated doses for the female human, higher than male by ([3]; female versus male human phantom): 18%
Estimated human absorbed dose, Ovaries [3, 7]: 2.88 ± 0.44 μGy/MBq
Estimated human absorbed dose, Uterus [3, 7]: 4.16 ± 0.63 μGy/MBq
Effective Dose (mean) [3, 8]: 15.30±2.21 μSv/MBq
Estimated human absorbed dose, Adrenals [3, 8]: 3.34 ± 0.52 μGy/MBq
Estimated human absorbed dose, Brain [3, 8]: 1.27 ± 0.22 μGy/MBq
Estimated human absorbed dose, Breasts [3, 8]: 1.34 ± 0.23 μGy/MBq
Estimated human absorbed dose, Gall bladder Wall [3, 8]: 3.07 ± 0.49 μGy/MBq
Estimated human absorbed dose, Heart Wall [3, 8]: 4.39 ± 0.62 μGy/MBq
Estimated human absorbed dose, Kidneys [3, 8]: 108.43 μGy/MBq and 108.43 ± 16.41 μGy/MBq
Estimated human absorbed dose, LLI Wall [3, 8]: 2.86 ± 0.44 μGy/MBq
Estimated human absorbed dose, Liver [3, 8]: 7.54 ± 1.15 μGy/MBq
Estimated human absorbed dose, Lungs [3, 8]: 1.67 ± 0.28 μGy/MBq
Estimated human absorbed dose, Muscle [3, 8]: 1.88 ± 0.31 μGy/MBq
Estimated human absorbed dose, Osteogenic Cells [3, 8]: 7.01 ± 0.91 μGy/MBq
Estimated human absorbed dose, Pancreas [3, 8]: 2.86 ± 0.45 μGy/MBq
Estimated human absorbed dose, Red Marrow [3, 8]: 9.29 ± 1.02 μGy/MBq
Estimated human absorbed dose, Skin [3, 8]: 1.38 ± 0.24 μGy/MBq
Estimated human absorbed dose, Small Intestine [3, 8]: 4.53 ± 0.68 μGy/MBq
Estimated human absorbed dose, Spleen [3, 8]: 6.78 ± 0.88 μGy/MBq
Estimated human absorbed dose, Stomach Wall [3, 8]: 2.11 ± 0.34 μGy/MBq
Estimated human absorbed dose, Testes [3, 8]: 2.03 ± 0.33 μGy/MBq
Estimated human absorbed dose, Thymus [3, 8]: 1.56 ± 0.26 μGy/MBq
Estimated human absorbed dose, Thyroid [3, 8]: 1.39 ± 0.24 μGy/MBq
Estimated human absorbed dose, Total Body [3, 8]: 2.76 ± 0.42 μGy/MBq
Estimated human absorbed dose, ULI Wall [3, 8]: 2.47 ± 0.39 μGy/MBq
Estimated human absorbed dose, Urinary Bladder Wall [3, 8]: 87.07 μGy/MBq and 87.07 ± 12.38 μGy/MBq
Tumor uptake (U87MG glioblastoma tumor; U87MG glioblastoma tumor bearing mice, reference 23): high tumor uptake
Normal organ uptake (U87MG glioblastoma tumor; mouse, in vivo): low normal organ uptake
Effects on vital signs (blood pressure, pulse, electrocardiogram) [4]: no observable effects on vital signs
Urinary bladder uptake ([5]; 1 h post injection, bladder not voided (anesthesia)): 51.37%±8.73%
Activity in gallbladder, small intestine, upper and lower large intestine ([5]; 3 h post injection): 8.62%±1.41%
Gallbladder uptake ([5]; during the whole scan): not observed
tissue uptake dose ([5]; kidneys, at 0.5 min, read-out: Maximum uptake for the kidneys): 26.8 ± 4.35 %ID
tissue uptake dose ([5]; liver, at 9 min, read-out: Maximum uptake for the liver): 37.4 ± 6.63 %ID
Activity remaining in blood ([6]; 3 h after injection, decay corrected): 2.88±0.88 % ID
Activity remaining in blood (range) ([6]; 3 h after injection, range): 2.07-3.82 % ID
Activity in the blood ([6]; 22 h after injection): 0.79±0.52 % ID
Clearance from the blood ([6]; decay corrected activity per unit of blood sample): cleared rapidly from the blood

— patent US11253617B2, “One step 64Cu-BaBaSar-RGD2 production method” (UNIVERSITY OF SOUTHERN CALIFORNIA, priority 2017, dated 2022)
